Data published in the supplement of paper PMC7877785.
± gives the uncertainty stated by the source.

Assay: self-splicing fitness, log relative to wild type (ln ratio); higher = more splicing; Tetrahymena group I intron in knt gene, E. coli kanamycin selection, DiMSum; sequences stand for … in CUCUCU…GGAGGGAAAAGUUAUCAGGCAUGCACCUGGUAGCUAGUCUUUAAACCAAUAGAUUGCAUCGGUUUAAAAGGCAAGACCGUCAAAUUGCGGGAAAGGGGUCAACAGCCGUUCAGUACCAAGUCUCAGGGGAAACUUUGAGAUGGCCUUGCAAAGGGUAUGGUAAUAAGCUGACGGACAUGGUCCUAACCACGCAGCCAAGUCCUAAGUCAACAGAUCUUCUGUUGAUAUGGAUGCAGUUCACAGACUAAAUGUCGGUCGGGGAAGAUGUAUUCUUCUCAUAAGAUAUAGUCGGACCUCUCCUUAAUGGGAGCUAGCGGAUGAAGUGAUGCAACACUGGAGCCGCUGGGAACUAAUUUGUAUGCGAAAGUAUAUUGAUUAGUUUUGGAGUACUCGUGGUCG
Method in brief: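 Six replicate transformations of E. coli BL21(DE3) with a pET-22b(+) library were grown overnight at 37°C or 30°C. The library randomised all eight P1ex-region intron nucleotides, the intron lying in the knt kanamycin-resistance gene, and plates were LB agar with or without 25 μg/mL kanamycin plus 100 μg/mL carbenicillin, 50 μM IPTG and 0.2% rhamnose. Pooled colonies were amplicon-sequenced on an Illumina HiSeq 2500, and fitness is the DiMSum error-weighted combination of wild-type-normalised replicate fold changes, kanamycin versus none.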

Sequence	self-splicing fitness (ln) (30 °C)	self-splicing fitness (ln) (37 °C)
UCGGAGCAAUAUUACGAGCC	-2.93 ± 0.41	–
CAUGAGCAAUAUUACGCACU	–	-1.96 ± 0.24
AAAUAGCAAUAUUACGAAGG	-2.61 ± 0.21	-1.45 ± 0.27
UUGGAGCAAUAUUACGGUUC	-2.38 ± 0.2	-2.86 ± 0.3
AAUAAGCAAUAUUACGCUCG	-0.686 ± 0.14	0.0576 ± 0.19
GAAUAGCAAUAUUACGCUGA	-2.56 ± 0.31	-0.623 ± 0.22
GAGCAGCAAUAUUACGGUAC	-2.73 ± 0.14	-0.416 ± 0.11
AAUAAGCAAUAUUACGCAUC	-2.56 ± 0.12	-1.66 ± 0.15
AGUAAGCAAUAUUACGAGAU	-3.09 ± 0.15	-0.575 ± 0.16
AUUUAGCAAUAUUACGUCGA	-2.64 ± 0.29	-0.501 ± 0.19
UUAAAGCAAUAUUACGUGUG	-0.972 ± 0.045	-0.4 ± 0.06
AGCCAGCAAUAUUACGGUUG	-0.979 ± 0.051	-0.86 ± 0.075
UCCGAGCAAUAUUACGGAAG	-3.67 ± 0.44	-1.82 ± 0.28
CUGAAGCAAUAUUACGACGA	-1.04 ± 0.097	-0.00885 ± 0.14
UCUCAGCAAUAUUACGGGCA	-0.117 ± 0.073	0.575 ± 0.09
ACCUAGCAAUAUUACGGGCA	-0.58 ± 0.11	0.19 ± 0.13
CAGUAGCAAUAUUACGCUGC	–	-1.92 ± 0.43
UAUCAGCAAUAUUACGGUCC	-2.18 ± 0.13	-0.955 ± 0.19
CCUCAGCAAUAUUACGAGCA	-3.04 ± 0.26	-2.87 ± 0.25
UGGAAGCAAUAUUACGCACG	-0.874 ± 0.12	0.34 ± 0.15
GCUGAGCAAUAUUACGGACG	-0.688 ± 0.1	-0.674 ± 0.11
UUCGAGCAAUAUUACGGGAG	-3.53 ± 0.2	-2.84 ± 0.22
CGUAAGCAAUAUUACGAGUU	-3.38 ± 0.17	-2.6 ± 0.23
UUCUAGCAAUAUUACGCGUU	-2.47 ± 0.15	-1.9 ± 0.13
UAGCAGCAAUAUUACGAGAU	-3.24 ± 0.2	-3.18 ± 0.28
UUUUAGCAAUAUUACGACAU	-2.164 ± 0.021	-1.09 ± 0.036
AAGUAGCAAUAUUACGGCGC	-0.0482 ± 0.11	0.221 ± 0.14

Sequence	self-splicing fitness (ln) (30 °C)	self-splicing fitness (ln) (37 °C)
UUAAAGCAAUAUUACGGCAU	-0.866 ± 0.11	0.331 ± 0.12
UGCGAGCAAUAUUACGAAGA	-3.24 ± 0.37	-1.97 ± 0.28
GUUUAGCAAUAUUACGUCGC	-1.67 ± 0.16	-0.462 ± 0.18
GAAAAGCAAUAUUACGGGCG	-1.32 ± 0.071	-0.282 ± 0.1
UGCUAGCAAUAUUACGAAGA	–	-2.09 ± 0.2
GCUGAGCAAUAUUACGGUCC	-2.99 ± 0.28	-0.889 ± 0.26
UCCUAGCAAUAUUACGUCAA	–	-1.52 ± 0.39
AAAAAGCAAUAUUACGCACA	-0.661 ± 0.067	-0.183 ± 0.087
UUCCAGCAAUAUUACGAAUU	-3.98 ± 0.18	-2.05 ± 0.14
GAGUAGCAAUAUUACGUAAA	–	-0.672 ± 0.33
CUCCAGCAAUAUUACGUGAA	-1.24 ± 0.065	-0.328 ± 0.09
AAUCAGCAAUAUUACGUCAG	-1.86 ± 0.12	-0.81 ± 0.12
UGGCAGCAAUAUUACGUCGA	-0.694 ± 0.04	0.401 ± 0.058
GCAUAGCAAUAUUACGAUUA	-1.47 ± 0.18	0.017 ± 0.15
UUAAAGCAAUAUUACGUACG	0.121 ± 0.083	0.746 ± 0.1
CCAAAGCAAUAUUACGGGGA	-3.41 ± 0.16	-2.93 ± 0.17
GAAGAGCAAUAUUACGCCUG	-0.984 ± 0.19	-0.756 ± 0.35
CUCUAGCAAUAUUACGGGGU	-3.87 ± 0.25	-3.39 ± 0.32
UAGAAGCAAUAUUACGAAGG	-2.9 ± 0.17	-1.82 ± 0.39
CGGGAGCAAUAUUACGAGCC	-0.749 ± 0.46	–
AUGGAGCAAUAUUACGGCGU	0.125 ± 0.14	0.224 ± 0.14
GGUAAGCAAUAUUACGACGU	0.151 ± 0.1	0.677 ± 0.13
GACCAGCAAUAUUACGAGGA	-1.04 ± 0.12	-0.408 ± 0.11
UAACAGCAAUAUUACGAAUA	-0.62 ± 0.1	-0.528 ± 0.1
CGUAAGCAAUAUUACGCGAU	-3.53 ± 0.2	-1.98 ± 0.18
GCAGAGCAAUAUUACGUUUU	-3.54 ± 0.17	-3.12 ± 0.2
CGUCAGCAAUAUUACGAGGA	-2.27 ± 0.19	-2.38 ± 0.28

Sequence	self-splicing fitness (ln) (30 °C)	self-splicing fitness (ln) (37 °C)
GGUAAGCAAUAUUACGAGCC	–	-2.76 ± 0.34
GCCUAGCAAUAUUACGUUAC	-2.72 ± 0.2	-1.49 ± 0.18
GCACAGCAAUAUUACGCGUU	-1.29 ± 0.053	-0.545 ± 0.057
ACCGAGCAAUAUUACGGUGC	-2.97 ± 0.21	-3.33 ± 0.37
CUCAAGCAAUAUUACGAAAU	-4.62 ± 0.46	-2.14 ± 0.17
AUCGAGCAAUAUUACGACAA	-2.78 ± 0.18	-2.2 ± 0.18
GGUAAGCAAUAUUACGUGUA	-1.73 ± 0.078	-0.95 ± 0.086
UUAGAGCAAUAUUACGCUUC	-2.81 ± 0.32	–
GAUGAGCAAUAUUACGUUCG	-2.05 ± 0.14	-0.925 ± 0.18
AACUAGCAAUAUUACGUUCG	-3.36 ± 0.26	-1.79 ± 0.16
CGCCAGCAAUAUUACGGAAG	-1.44 ± 0.064	-0.526 ± 0.077
CCCGAGCAAUAUUACGCACU	-2.78 ± 0.25	-3 ± 0.27
GUAAAGCAAUAUUACGCUGA	-1.4 ± 0.072	-0.903 ± 0.099
GGGUAGCAAUAUUACGGAGC	-1.42 ± 0.14	-0.425 ± 0.17
UACGAGCAAUAUUACGAGUG	-1.86 ± 0.07	-1.74 ± 0.1
CUUGAGCAAUAUUACGACAU	-3.581 ± 0.028	-2.55 ± 0.041
UCACAGCAAUAUUACGUGUC	-3.55 ± 0.2	-2.6 ± 0.2
AUUUAGCAAUAUUACGUCUC	-3.59 ± 0.37	-2.18 ± 0.3
UGGUAGCAAUAUUACGUUUA	-1.58 ± 0.11	-0.847 ± 0.1
GCACAGCAAUAUUACGAUUC	-0.739 ± 0.11	1.44 ± 0.15
ACUAAGCAAUAUUACGGUGC	-2.36 ± 0.11	-2.02 ± 0.15
CCCUAGCAAUAUUACGAGCU	-4.02 ± 0.24	-1.87 ± 0.2
AAAUAGCAAUAUUACGUGCA	-1.23 ± 0.063	-0.426 ± 0.095
AUACAGCAAUAUUACGAUUG	-3.14 ± 0.14	-2.59 ± 0.2
ACUUAGCAAUAUUACGACAC	-2.03 ± 0.14	-0.762 ± 0.2
